From patent US20080220004A1 (published 2008) come the findings set out here.

The target of assay [1] is chimeric receptor Flt(1-7)-EpoR on Baf/3 cells (human) (UniProt P17948). Put plainly: cell-based or functional assay.
The target of a further assay is human VEGF165 (human, UniProt P15692-4 27-191). Put plainly: ELISA of rabbit ocular tissue and plasma samples on human VEGF165-coated plates (pharmacokinetic detection). On the technique in general: In an ELISA, binding on a coated surface is turned into a signal by an enzyme label.
Sequence of human VEGF165 (P15692 other isoform, or with tags, fused parts or gaps): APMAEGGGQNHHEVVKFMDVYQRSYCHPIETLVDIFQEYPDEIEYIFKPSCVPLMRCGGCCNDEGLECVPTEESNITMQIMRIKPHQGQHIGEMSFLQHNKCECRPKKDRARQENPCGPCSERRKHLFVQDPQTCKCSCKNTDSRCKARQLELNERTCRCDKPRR

Sequence of chimeric receptor Flt(1-7)-EpoR on Baf/3 cells (human) (P17948 other isoform, or with tags, fused parts or gaps mutant limits assumed): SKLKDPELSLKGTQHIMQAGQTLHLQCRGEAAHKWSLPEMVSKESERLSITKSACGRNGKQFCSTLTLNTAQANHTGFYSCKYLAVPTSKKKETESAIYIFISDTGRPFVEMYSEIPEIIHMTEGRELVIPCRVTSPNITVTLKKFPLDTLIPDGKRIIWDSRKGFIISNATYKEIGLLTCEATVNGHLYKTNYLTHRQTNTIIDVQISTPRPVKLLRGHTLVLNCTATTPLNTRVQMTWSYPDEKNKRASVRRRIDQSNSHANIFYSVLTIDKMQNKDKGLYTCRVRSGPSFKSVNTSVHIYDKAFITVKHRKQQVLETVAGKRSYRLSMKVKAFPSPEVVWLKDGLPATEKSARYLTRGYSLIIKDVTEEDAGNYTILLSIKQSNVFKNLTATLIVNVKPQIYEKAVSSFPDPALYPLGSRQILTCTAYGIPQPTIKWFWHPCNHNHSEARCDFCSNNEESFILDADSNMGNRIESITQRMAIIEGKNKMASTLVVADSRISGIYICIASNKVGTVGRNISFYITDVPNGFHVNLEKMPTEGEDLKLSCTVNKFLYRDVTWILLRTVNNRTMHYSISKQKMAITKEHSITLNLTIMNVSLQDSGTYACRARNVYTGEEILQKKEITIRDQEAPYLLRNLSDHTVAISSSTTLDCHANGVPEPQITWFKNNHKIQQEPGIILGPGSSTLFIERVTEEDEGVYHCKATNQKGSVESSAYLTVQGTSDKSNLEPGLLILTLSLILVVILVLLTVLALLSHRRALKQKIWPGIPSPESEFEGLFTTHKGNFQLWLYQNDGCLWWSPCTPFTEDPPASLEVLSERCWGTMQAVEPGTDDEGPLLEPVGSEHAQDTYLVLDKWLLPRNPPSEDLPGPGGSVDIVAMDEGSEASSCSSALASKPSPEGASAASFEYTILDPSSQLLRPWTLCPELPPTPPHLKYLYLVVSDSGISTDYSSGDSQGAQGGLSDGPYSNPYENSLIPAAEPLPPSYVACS
Experimental for human VEGF165: Ocular and systemic levels of two VEGF inhibitors were determined after a single intravitreal administration to male Pigmented New Zealand Cross Bred rabbits. At various time points following the injection, the rabbits were sacrificed and vitreous, retina, and choroid tissues were collected, as well as blood samples for plasma and serum.
Sample Processing. Generally, vitreal samples were thawed at room temperature and transferred to individual 5 mL polypropylene tubes. An equivalent weight per volume of RIPA buffer (20 MM Tris HCl, pH 7.5, 5 mM benzamidine, 150 mM sodium chloride, 50 mM sodium fluoride, 1 mM sodium orthovanadate, and 1 mM EDTA) was added to each sample, and homogenized (Cyclone I.Q. Microprocessor, Sentry) for 2, 45 second cycles at 5,500 rpm. The samples were then incubated for 20 minutes on ice and then centrifuged for 30 minute at 5,500 rpm at 4° C. The supernatant was removed and stored at −80° C. for analysis. Retinal and choroid samples were similarly processed the samples were homogenized for 30-60 seconds at the highest speed setting (Ultra Tunax T8 Homogenizer with S8N-5G Disposing Element, IKA Laboratoies). The samples were transferred to individual 1.5 mL eppendorf tubes and incubated for 20 minutes on ice. They were then centrifuged for 30 minutes at 5,500 rpm, 4° C. […]

Regarding “VEGF 121 (R&D Biosystems) (from UniProt P15692 27-147) (ligand)”, the proliferation of Baf/Flt(1-7)-EpoR cells (WST-8 bioreduction), EC50 in assay [1] is 0.018 nM.

B1: mini-VEGF trap (other)
chain: SDTGRPFVEMYSEIPEIIHMTEGRELVIPCRVTSPNITVTLKKFPLDTLIPDGKRIIWDSRKGFIISNATYKEIGLLTCEATVNGHLYKTNYLTHRQTNTIIDVVLSPSHGIELSVGEKLVLNCTARTELNVGIDFNWEYPSSKHQHKKLVNRDLKTQSGSEMKKFLSTLTIDGVTRSDQGLYTCAASSGLMTKKNSTFVRVHEKDKTHTCPPC
notes: also called truncated VEGF trap protein
On to B1, for which the binding result with human VEGF165 is given as “binds”.
